This note sets out measurements from PMC2755179 (Autophagy, 2008).

Holding throughout (assay): ITC
One assay has as its target T1, γHV68 M11 (murine γ-herpesvirus 68, UniProt P89884 1-136).
T1 sequence: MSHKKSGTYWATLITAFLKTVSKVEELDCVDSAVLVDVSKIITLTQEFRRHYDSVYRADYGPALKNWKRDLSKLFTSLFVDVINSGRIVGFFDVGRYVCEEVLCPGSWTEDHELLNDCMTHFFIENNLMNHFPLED

The target in another assay is T2, KSHV Bcl-2 (Kaposi's sarcoma-associated HV, UniProt P90504).
T2 sequence: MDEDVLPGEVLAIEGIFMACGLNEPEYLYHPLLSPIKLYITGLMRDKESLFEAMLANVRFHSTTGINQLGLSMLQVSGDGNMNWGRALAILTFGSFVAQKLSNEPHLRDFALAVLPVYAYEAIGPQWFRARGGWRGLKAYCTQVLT

Another assay concerns the target cellular Bcl-2 (UniProt P10415 1-211).

Chain of cellular Bcl-2 (P10415 1-211): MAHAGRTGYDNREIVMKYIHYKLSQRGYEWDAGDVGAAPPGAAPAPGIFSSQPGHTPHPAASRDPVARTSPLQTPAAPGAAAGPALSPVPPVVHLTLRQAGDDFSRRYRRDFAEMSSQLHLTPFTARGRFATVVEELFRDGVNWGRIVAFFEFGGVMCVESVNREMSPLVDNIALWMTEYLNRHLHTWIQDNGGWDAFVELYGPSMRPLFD

For orientation: Kd means a measure of binding affinity in units of concentration. A lower Kd goes with a tighter complex. As for DGGTMENLSRRLKVTGDLFDIMSGQT (peptide, UniProt Q14457 105-130, looked up) [Beclin 1 BH3 domain], the figures for the Kd with γHV68 M11, with KSHV Bcl-2 and with cellular Bcl-2 were 1.1 µM, 13.3 µM and 8 µM, respectively.

B1: MBP•Beclin 1(1–135)•His6 (domain or fragment, human, UniProt Q14457 1-135, looked up)
chain: MEGSKTSNNSTMQVSFVCQRCSQPLKLDTSFKILDRVTIQELTAPLLTTAQAKPGETQEEETNSGEEPFIETPRQDGVSRRFIPPARMMSTESANSFTLIGEASDGGTMENLSRRLKVTGDLFDIMSGQTDVDHP
Take B1: the Kd with γHV68 M11 was found to be 0.2 µM; with KSHV Bcl-2, 54.2 µM; with cellular Bcl-2 it was 8.6 µM.
